Experimental data from the Immune Epitope Database (IEDB).

Assays:
[1] = target: HLA-A*26:01; assay: IEDB peptide-MHC binding, purified MHC/competitive/fluorescence; filed as Kd, often an IC50 or EC50 that approximates it; ≥ and ≤ were set here for values at or beyond the usual limits of such assays; details: source organism: Escherichia coli O139:H28 str. E24377A
[2] = target: HLA-C*14:02; assay: IEDB peptide-MHC binding, purified MHC/direct/fluorescence; filed as Kd, often an IC50 or EC50 that approximates it; ≥ and ≤ were set here for values at or beyond the usual limits of such assays
[3] = target: HLA-B*15:03; assay: IEDB peptide-MHC binding, purified MHC/competitive/radioactivity; filed as Kd, often an IC50 or EC50 that approximates it; ≥ and ≤ were set here for values at or beyond the usual limits of such assays
[4] = target: HLA-A*11:01; assay: IEDB peptide-MHC binding, purified MHC/competitive/fluorescence; ≥ and ≤ were set here for values at or beyond the usual limits of such assays
[5] = target: HLA-A*02:01; assay: as above
[6] = target: HLA-A*03:01; assay: as above
[7] = target: HLA-A*11:01; assay: IEDB peptide-MHC binding, purified MHC/direct/fluorescence; filed as Kd, often an IC50 or EC50 that approximates it; ≥ and ≤ were set here for values at or beyond the usual limits of such assays; details: source organism: Vibrio vulnificus
[8] = target: HLA-A*26:01; assay: as above; details: source organism: Vibrio vulnificus
[9] = target: HLA-B*27:05; assay: as above; details: source organism: Vibrio vulnificus
[10] = target: HLA-A*02:01; assay: as above; details: source organism: Vibrio vulnificus
[11] = target: HLA-B*07:02; assay: as above; details: source organism: Vibrio vulnificus
[12] = target: HLA-B*15:01; assay: as above; details: source organism: Vibrio vulnificus
[13] = target: HLA-B*58:01; assay: as above; details: source organism: Vibrio vulnificus
[14] = target: HLA-A*01:01; assay: as above; details: source organism: Vibrio vulnificus
[15] = target: HLA-B*35:01; assay: as above; details: source organism: Vibrio vulnificus
[16] = target: HLA-A*69:01; assay: as above; details: source organism: Vibrio vulnificus
[17] = target: HLA-B*40:01; assay: as above; details: source organism: Vibrio vulnificus
[18] = target: HLA-B*08:01; assay: as above; details: source organism: Vibrio vulnificus
[19] = target: HLA-B*44:02; assay: as above; details: source organism: Vibrio vulnificus
[20] = target: HLA-A*31:01; assay: as above; details: source organism: Vibrio vulnificus
[21] = target: HLA-A*03:01; assay: as above; details: source organism: Vibrio vulnificus
[22] = target: HLA-A*02:06; assay: IEDB peptide-MHC binding, purified MHC/competitive/radioactivity; filed as Kd, often an IC50 or EC50 that approximates it; ≥ and ≤ were set here for values at or beyond the usual limits of such assays
[23] = target: HLA-A*02:01; assay: as above
[24] = target: HLA-A*02:03; assay: as above
[25] = target: HLA-A*02:17; assay: as above
[26] = target: HLA-B*51:01; assay: as above; details: source organism: Dengue virus 3 Martinique/1243/1999
[27] = target: HLA-A*26:01; assay: as above; details: source organism: Dengue virus 3 Martinique/1243/1999
[28] = target: HLA-A*68:02; assay: as above; details: source organism: Dengue virus 3 Martinique/1243/1999
[29] = target: HLA-A*24:02; assay: IEDB peptide-MHC binding, purified MHC/competitive/fluorescence; ≥ and ≤ were set here for values at or beyond the usual limits of such assays; details: source organism: Zaire ebolavirus
[30] = target: HLA-A*30:01; assay: IEDB peptide-MHC binding, purified MHC/competitive/radioactivity; filed as Kd, often an IC50 or EC50 that approximates it; ≥ and ≤ were set here for values at or beyond the usual limits of such assays; details: source organism: Vaccinia virus WR
[31] = target: HLA-A*32:01; assay: as above; details: source organism: Vaccinia virus WR
[32] = target: HLA-B*15:01; assay: as above; details: source organism: Vaccinia virus WR
[33] = target: HLA-B*08:01; assay: as above; details: source organism: Vaccinia virus WR
[34] = source organism: Vaccinia virus WR
[35] = source organism: Zaire ebolavirus
[36] = source organism: Dengue virus 1 Brazil/97-11/1997
[37] = source organism: Dengue virus 1 Singapore/S275/1990
[38] = source organism: Dengue virus 3 Martinique/1243/1999
[39] = source organism: Dengue virus 3 China/80-2/1980
[40] = source organism: Vaccinia virus

Q: With ACPDNLLRL as the sequence, how does the Kd [1] read?
A: ≥ 20000 nM

Q: What about the Kd ([2]; source organism: Escherichia coli O139:H28 str. E24377A) of the same sequence?
A: 1100 nM

Q: AKSQSDTVF was tested. Which Kd [3, 34] did it give?
A: 0.16 nM

Q: Which results are given for ATAHGSTLA?
A: IC50 [4, 35]: 43100 nM; IC50 [5, 35]: 54300 nM

Q: For AVLYYHMMK, which IC50 [4, 35] is on record?
A: 288 nM

Q: What about the IC50 [5, 35] of the same sequence?
A: ≥ 311000 nM

Q: What about the IC50 [6, 35] of the same sequence?
A: 1970 nM

Q: How did the Kd [7] turn out when DFPIFNQRY was run?
A: ≥ 20000 nM

Q: What about the Kd [8] of the same sequence?
A: 3830 nM

Q: What about the Kd [9] of the same sequence?
A: ≥ 20000 nM

Q: And the Kd [10]?
A: ≥ 20000 nM

Q: And the Kd [11]?
A: ≥ 20000 nM

Q: What about the Kd [12] of the same sequence?
A: ≥ 20000 nM

Q: And the Kd [13]?
A: ≥ 20000 nM

Q: What about the Kd [14] of the same sequence?
A: ≥ 20000 nM

Q: What about the Kd [15] of the same sequence?
A: 118 nM

Q: And the Kd [16]?
A: ≥ 20000 nM

Q: What about the Kd [17] of the same sequence?
A: ≥ 20000 nM

Q: And the Kd [18]?
A: ≥ 20000 nM

Q: What about the Kd [19] of the same sequence?
A: ≥ 20000 nM

Q: What about the Kd [20] of the same sequence?
A: ≥ 20000 nM

Q: And the Kd [21]?
A: ≥ 20000 nM

Q: What does the source list for FMTATPPGSV?
A: Kd [22, 36]: 671 nM; Kd [23, 37]: 72.8 nM; Kd [24, 36]: 1.67 nM; Kd [25, 37]: 3100 nM

Q: How did the Kd [3, 34] turn out when FMYFCEQKL was run?
A: 35.7 nM

Q: How did the Kd ([3]; source organism: Vaccinia virus Copenhagen) turn out when FSMLGIWFF was run?
A: 28.3 nM

Q: How did the Kd [26] turn out when FTMGVLCLAI was run?
A: 8620 nM

Q: What about the Kd [22, 38] of the same sequence?
A: 5.39 nM

Q: And the Kd [27]?
A: 1650 nM

Q: And the Kd [24, 38]?
A: 9.25 nM

Q: What about the Kd [28] of the same sequence?
A: 11.1 nM

Q: And the Kd [25, 39]?
A: 132 nM

Q: For GTSNRTPTV, which IC50 [4, 35] is on record?
A: ≥ 128000 nM

Q: And the IC50 [5, 35]?
A: 1300 nM

Q: What about the IC50 [6, 35] of the same sequence?
A: 57200 nM

Q: With IEVSSDISF as the sequence, how does the Kd [3, 34] read?
A: 9.74 nM

Q: IVLEFFMMV was tested. Which Kd [22, 38] did it give?
A: 31.7 nM

Q: And the Kd [28]?
A: 558 nM

Q: And the Kd [25, 39]?
A: 131 nM

Q: IYIEGLMHN was tested. Which IC50 [4, 35] did it give?
A: 36100 nM

Q: And the IC50 [29]?
A: 2630 nM

Q: What about the IC50 [6, 35] of the same sequence?
A: ≥ 211000 nM

Q: With KIGDFGLATVK as the sequence, how does the IC50 ([4]; source organism: Homo sapiens) read?
A: 32 nM

Q: What about the IC50 ([6]; source organism: Homo sapiens) of the same sequence?
A: 415 nM

Q: With KIVMTPSPF as the sequence, how does the Kd [3, 34] read?
A: 211 nM

Q: KMLMTGTLAV was tested. Which Kd [22, 36] did it give?
A: 47.4 nM

Q: And the Kd [23, 37]?
A: 6.46 nM

Q: What about the Kd [24, 36] of the same sequence?
A: 10 nM

Q: And the Kd [25, 37]?
A: 444 nM

Q: With KMNAKAATL as the sequence, how does the Kd ([2]; source organism: Mycobacterium tuberculosis variant bovis BCG str. Pasteur 1173P2) read?
A: 146 nM

Q: LKSPKRCSF was tested. Which Kd [3, 34] did it give?
A: 2.74 nM

Q: For LLLQKYPPP, which IC50 [5, 40] is on record?
A: 34100 nM

Q: And the IC50 [6, 40]?
A: ≥ 416000 nM

Q: Which results are given for LLTGGAMLFL?
A: Kd [23, 39]: 47.4 nM; Kd [25, 39]: 347 nM

Q: Which Kd [30] does the source give for LMFKHLLHP here?
A: 504 nM

Q: And the Kd [31]?
A: 11300 nM

Q: And the Kd [3, 34]?
A: 25.9 nM

Q: What about the Kd [32] of the same sequence?
A: 103 nM

Q: What about the Kd [33] of the same sequence?
A: 1.04 nM

Q: Which Kd [3, 34] does the source give for LMMTLPSIF here?
A: 0.152 nM
